The record followed here is patent publication US20080317723A1, “LYMPHATIC ENDOTHELIAL CELLS MATERIALS AND METHODS” (VEGENICS LIMITED, priority 2001, published 2008).

Assay [1] deals with CREB. In words: CREB Ser133 phosphorylation in HMVE cells, Western blot. The assay is classed as cell-based, human. The note with it: HMVECs. As to the method:
Western blot analysis. Endothelial cells were cultured on 35 mm dishes to near confluence, starved for 24 h in serum free medium and stimulated as indicated. Wortmannin ([…]), LY294002 ([…]), PD98059 (10-25 μM) or GF109203X (2.5-5 μM) were added 1-3 h before stimulation, where indicated. DMSO, into which the inhibitors were dissolved, was used as a control. After the stimulation, the cells were lysed in lysis buffer (50 mM HEPES, pH 7.5, 150 mM NaCl, 10 mM EDTA, 100 mM NaF, 1% TritonX-100 supplemented with 2 mM Na3VO4, 0.5 mM PMSF, 100 U/ml approtinin and 10 μg/ml leupeptin). Clarified lysates were separated by SDS-PAGE, transferred to nitrocellulose and immunoblotted using the phosphospecific antibodies for Akt-Ser473, Akt-Thr308, p42/44 MAPK-Thr202/Tyr204 or CREB-Ser133. The bound antibodies were detected using horseradish peroxidase conjugated secondary antibodies and enhanced chemiluminescence detection system. The blots were stripped and reprobed with antibodies against Akt, MAPK or CREB for quantification by reading the optical densities of the signals with Multi-Analyst 2.0.1 program (Bio-Rad).
The p42/p44 MAPK activation was detected by Western blotting using phospho-Thr202/Tyr204-MAPK specific antibodies and CREB phosphorylation using phospho-Ser133 specific antibodies. The growth factor concentrations used were: VEGF 10 ng/ml, VEGF-C 100 ng/ml and VEGF-C156S 500 ng/ml. […] Effects of inhibition of protein kinase C by GF109203X, MEK1 by PD98059 and PI-3 kinase by LY294002 on p42/p44 MAPK Thr202/Tyr204 phosphorylation, CREB Ser133 phosphorylation and Akt Ser473 phosphorylation in HMVE cells. The growth factor concentrations used were: VEGF 1 ng/ml, VEGF-C 10 ng/ml and VEGF-C156S 500 ng/ml
Background: A western blot detects proteins with antibodies after separation by electrophoresis.

Assay [2] has as its target T1, hVEGFR-2 (Homo sapiens, UniProt P35968).
T1 construct: Receptor domains were coupled to the carboxymethylated dextran layer of a CM5 sensor chip
Kind of assay: Biosensor (BIAcore) analysis of ligand binding to immobilized VEGFR-2. The conditions noted are these: hVEGFR-2 bivalent immunoglobulin fusion protein immobilized; global fitting, 1:1 Langmuirian model with mass transfer. As to the method: Biosensor Analysis. All preparations were analysed for homogeneity and buffer exchanged by micropreparative size exclusion HPLC using a Superose 12 (3.2/30) column installed in a SMART system (Amersham Pharmacia Biotech, Uppsala, Sweden) immediately prior to use (Nice and Catimel, Bioessays, 21:339-352, 1999). The concentrations of VEGF-C and VEGF-D were determined by absorbance at 280 nm using E280 1% 1 cm of 0-65. Receptor domains were coupled to the carboxymethylated dextran layer of a CM5 sensor chip using standard amine coupling chemistry (Nice and Catimel, Bioessays, 21:339-352, 1999) for analysis of ligad binding using a BIAcore 2000 optical biosensor (BIAcore, Uppsala, Sweden). The levels immobilized were 3,000 RU and 7,000 RU for VEGFR-2 and VEGFR-3, respectively. Following immobilization, residual activated ester groups were blocked by treatment with 1 M ethanolamine hydrochloride pH 8.5 followed by washing with 10 mM diethylamine to remove non-covalently bound material. 10 mM diethylamine or 10 mM HCl was used to regenerate the sensor surface between analyses for VEGF-D or VEGF-C binding, respectively. Samples were diluted in running buffer (10 mM HEPES pH 7.4, 150 mM NaCl, 3.4 mM EDTA, 0.005% Tween 20). The apparent binding affinities of VEGF-C and VEGF-C156S to receptor domains were determined by analysis of the initial dissociation phase to obtain the kd, which was then used to constrain a global analysis of the association region of the curves, assuming a 1:1 Langmuirian model. Data were analysed using BLAevaluation 3.0 (BIAcore, Uppsala, Sweden) as described previously (Catimel et al., J. Chromatogr., 776:15-30, 1997).
Biosensor analysis was used to further investigate the interactions of VEGF-C and VEGF-C156S with VEGFR-2 and VEGFR-3. Analysis of the biosensor binding curves confirmed that VEGF-C156S binds only to the extracellular domain of VEGFR-3, whereas wild type VEGF-C bound to both VEGFR-2 and VEGFR-3 receptors (FIG. 1D-FIG. 1G). […] However, in both assays the affinity of VEGF-C was higher towards VEGFR-3 than towards VEGFR-2.
On the technique in general: In SPR one partner is held on a chip, and binding of the other changes the refractive index at the surface.

T1 sequence (P35968 20-764 limits assumed): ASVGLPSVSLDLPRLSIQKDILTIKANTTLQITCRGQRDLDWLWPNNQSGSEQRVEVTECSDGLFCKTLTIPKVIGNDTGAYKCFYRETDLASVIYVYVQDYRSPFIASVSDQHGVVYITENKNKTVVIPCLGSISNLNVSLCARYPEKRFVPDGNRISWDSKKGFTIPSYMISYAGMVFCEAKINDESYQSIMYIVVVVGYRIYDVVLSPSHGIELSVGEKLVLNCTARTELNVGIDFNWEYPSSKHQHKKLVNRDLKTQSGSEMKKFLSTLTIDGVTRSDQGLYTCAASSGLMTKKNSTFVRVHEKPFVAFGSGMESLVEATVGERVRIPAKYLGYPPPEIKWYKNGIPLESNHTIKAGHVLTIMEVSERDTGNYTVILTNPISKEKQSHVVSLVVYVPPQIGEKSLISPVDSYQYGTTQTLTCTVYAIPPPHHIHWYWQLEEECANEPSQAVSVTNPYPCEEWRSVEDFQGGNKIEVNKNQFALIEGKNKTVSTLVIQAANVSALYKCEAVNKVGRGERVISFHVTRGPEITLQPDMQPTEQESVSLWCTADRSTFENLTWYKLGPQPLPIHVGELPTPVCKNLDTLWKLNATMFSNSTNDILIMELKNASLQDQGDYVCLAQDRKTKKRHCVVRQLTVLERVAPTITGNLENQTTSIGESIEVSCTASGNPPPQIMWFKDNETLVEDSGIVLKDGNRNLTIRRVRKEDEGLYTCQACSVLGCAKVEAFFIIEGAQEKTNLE

In the case of VEGF, in assay [1], the “CREB phosphorylation on growth factor stimulation” value is listed as “detected”.

B1: VEGF-C156S: VEGFR-3 specific mutant form of VEGF-C, cysteine 156 changed into serine; recombinant human (Thr103 to Ile225) (protein, UniProt P49767 103-225, looked up, variant C156S)
chain: TEETIKFAAAHYNTEILKSIDNEWRKTQCMPREVCIDVGKEFGVATNTFFKPPSVSVYRCGGCCNSEGLQCMNTSTSYLSKTLFEITVPLSQGPKPVTISFANHTSCRCMSKLDVYRQVHSII
For the molecule B1, in assay [2], the KD entry is “no binding”, the Ka result is “no binding” and the Kd entry was “no binding”.
